pKd: −log10 of the molar value.

For experiment [1], the target named is human glucagon-like peptide-1 receptor (GLP1R) with C-terminal 1D4 epitope, purified in nanodiscs (GLP1R-ND) (human) (UniProt P43220).
The target is the same in experiment [2]. Briefly: fluorescence polarisation; fluorescence anisotropy; 50 nM FAM-labeled peptide with 0 to 400 nM freshly prepared GLP1R-ND (or empty-ND); 20 mM Tris-HCl pH 7.4, 150 mM NaCl, EDTA, 3 mM MgCl2; room temperature; single-site binding model; three independent receptor preparations. On the technique in general: Fluorescence polarisation rises when a labelled molecule tumbles more slowly, as on binding a larger partner.

Experiment [3] has the same target. The experiment is described as follows: fluorescence polarisation.

Sequence of UniProt P43220 (P43220 24-463): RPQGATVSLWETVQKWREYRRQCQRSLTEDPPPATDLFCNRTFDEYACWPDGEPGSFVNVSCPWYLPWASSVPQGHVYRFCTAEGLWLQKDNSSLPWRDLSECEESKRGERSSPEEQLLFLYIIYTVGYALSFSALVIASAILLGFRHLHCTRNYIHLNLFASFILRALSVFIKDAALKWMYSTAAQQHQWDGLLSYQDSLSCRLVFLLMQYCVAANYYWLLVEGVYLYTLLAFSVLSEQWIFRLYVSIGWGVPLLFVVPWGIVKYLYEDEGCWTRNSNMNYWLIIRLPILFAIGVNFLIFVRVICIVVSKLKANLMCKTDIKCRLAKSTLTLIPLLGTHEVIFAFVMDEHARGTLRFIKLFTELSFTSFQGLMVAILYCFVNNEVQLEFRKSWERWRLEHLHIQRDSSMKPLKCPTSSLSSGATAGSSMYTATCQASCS

As a reminder, the pKd is the negative decadic logarithm of the Kd, by convention in mol/L. A high value points to a small Kd. In experiment [1], “FAM-labeled GLP-1-(7-37) (E21K, 5(6)-carboxyfluorescein on the lysine) (peptide)” gave an EC50 of cell-based cAMP assay (receptor on cells, details in S1 Supporting Information) of 1.18 nM. Also, the pKd in experiment [2] was 6.55.

Consider “FAM-labeled exendin-4 (L21K, 5(6)-carboxyfluorescein on the lysine) (peptide)”, for which, in experiment [3], the pKd is 6.75.

These data come from article PMC5469476.
